The labels stand for the following.
B1: MTK-17 (antibody, human IgG1, V domains shown)
VH: QIQLVQSGPELKKPGETVKISCKASGYTFTNFGMNWVKQAPGKGLKWMGWINTYTGEPTYADDFKGRFAFSLETSASTAYLQINNLKNEDTATYFCSRGAVLRAGAMDCWGQGTSVTVSS
VL: DIQMTQSSSYLSVSLGGRVTITCKASDHINNWLAWYQQKPGNAPRLLISGATSLETGVPSRFSGSGSGKDYTLSITSLQTEDVATYYCQQYWSTPRTFGGGTKLEIK
B2: MTK-04 (antibody, human IgG1, V domains shown)
VH: QIQLVQSGPELKKPGETVKISCKASGYTFTNYGMNWVKQAPGKGLKCMGWINTYTGEPTYADDFKGRFAFSLETSASTAYLQINNLKNEDMATYFCAKYDNYAWFAYWGQGTLVTVSA
VL: QIVLSQSPAFLSASPGEKVTMTCRASSSVSYMHWYLQKPGSSPKPWIYATSNLASGVPVRFSGSGSGTSYSLTISRVEAEDAATYYCQQWSSNPRTFGGGTKLEIR
B3: MTK-11 (antibody, human IgG1, V domains shown)
VH: QVQLKQSGPGLVQPSQSLSITCTVSGFSLTDYGVHWVRQSPGKGLEWLGVIWSSGTTDYNEAFISRLSISKDNSKSHVFFKMNSLQAIDTAIYYCARKGHDPYAMDYWGQGTSVTVSS
VL: QIVLTQSPAIMSASLGERVTMTCTASSSISSSYFHWYQQKPGSSPKLWIYSTSNLPSGVPARFSGSGSGTSYSLTISSMEAEDAATYYCHQYYRSPLTFGAGTKLELK
B4: MTK-12 (antibody, human IgG1, V domains shown)
VH: QVQLQQSGPQLVRPGASVKISCKASGYSFTSHWMHWVKQRPGQGLEWIGMIDPSDGESRLNQKFKDKATLTVDKSSSTAYMQLSSPTFEDSAVYYCARGIYYYGITYAMDYWGQGTSVTVSS
VL: QIVLTQSPAIMSASPGEKVTMTCSASSSVSYMYWYQQKPRSSPRLLIYDTSNLASGVPVRFSGSGSGTSYSLTISRMEAEDAATYYCQQWSSYPLTFGAGTKLELK
B5: MTK-05 (antibody, human IgG1, V domains shown)
VH: QVQLQQSGAELVQPGTSVRLSCKTSGYTFTSYWIQWVKQRPGQGLGWIGEIFPGTGTTYYNEKFKGKATLTIDTSSSTAYMQLSSLTSEDSAVYFCARDGAYFDVWGAGTTVTVSS
VL: DIQMTQSPASLSASVGETVTFTCRASENIFSYLAWYQQKQGKSPQLLVYNAKTLAEGVPSRFSGSGSGTHFSLKINSLQPEDFGSYYCLHHYGTPLTFGAGTKLELK
B6: MTK-33 (antibody, human IgG1, V domains shown)
VH: QVQLQQPGPELVRPGTSVKLSCKASGYTFTSYWMHWIKQRPGQGLEWIGVIDPSDNYINYNQKFKGKATLTVDTSSSTAYLQLSSLTSEDSAVYYCAREAGTRGYFDYWGQGTTLTVSS
VL: SIVMTQTPKFLLVSAGDRVIITCKASQSVSNTVAWYQQKPGQSPKLLIYYASNRYTGVPDRFTGSGYGTDFTFTISTVQAEDLAVYFCQQDYRSPFTFGSGTQLEMK
B7: MTK-20 (antibody, human IgG1, V domains shown)
VH: QIQLVQSGPELKKPGETVKISCKASGYTFTNYGMTWVKQAPGKGLKWMGWINTYTGEPTYADDFKGRFALSLETSASTAYLQINNLKNEDTATYFCARGGGRLGLRPLDYWGQGTTLTVSS
VL: DIQMTQTTSSLSASLGDRVTISCRASQDINNYLNWYQQKPDGTVKLLIYYTSRLHSGVPSRFSGSGSGTDYSLTISNLEQEDIATYFCQQGNTLPWTFGGGTKLEIK
B8: MTK-21 (antibody, human IgG1, V domains shown)
VH: B7 VH with Y32F, K38R, K43M, G44D, T59K, N84T, L86F
VL: B7 VL with R53S, S76T, K103R
B9: MTK-18 (antibody, human IgG1, V domains shown)
VH: B7 VH with N31H, L70F, R102Q
VL: B7 VL with I21F, D28A, N30S
B10: MTK-03 (antibody, human IgG1, V domains shown)
VH: DVQLQESGPGLVKPSQSLSLTCSVTGYSITSGYYWNWIRQFPGNTLEWMGYMSFDGDNKFNPSLKNRISITRDTSKNQFFLRLNSVTTEDTATYYCARGGYNYGSTEANWGQGTLVTVSA
VL: QIVLTQSPAIMSAFPGEKVTITCSASSSVNYMHWFQQKPGTSPKLWIYSTSNLASGVPARFSGSGSGTSYSLTISRMEAEDAATYYCQQRSSYPFTFGSGTKLEIK
B11: MTK-07 (antibody, human IgG1, V domains shown)
VH: B10 VH with A120T
VL: B10 VL with N30T, Y48F
B12: MTK-19 (antibody, human IgG1, V domains shown)
VH: EVQLQQSGPELVKPGASVKISCKTSGYTFTEYTMHWVKQSHGKSLEWLGGFNPNNVITSYNQRFQGRATLTVDKSSSTAYMELRSLTSDDSAVYYCTRGDLLWSLLLPGNYFDYWGQGTTLTVSS
VL: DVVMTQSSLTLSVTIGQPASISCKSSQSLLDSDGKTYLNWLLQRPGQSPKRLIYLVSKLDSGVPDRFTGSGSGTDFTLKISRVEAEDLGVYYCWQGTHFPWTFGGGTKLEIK
B13: MTK-01 (antibody, human IgG1, V domains shown)
VH: B2 VH with S77T, M91T, K98R, Y99R, N101R, A103T
VL: B2 VL with F10I, L36Q, V59A, R95P, R106K

This is an account of results in patent US20210261685A1 (Alector, published 2021).

In general, Kd refers to a measure of binding affinity in units of concentration.

Positions count from the first letter of the chain named.

In the first test the target is T1, human MerTK extracellular domain (ECD), recombinant (human, UniProt Q12866 21-505).
T1 construct: also called huMerTK; not shown: polyHis tag or TEVS/Thrombin/murine IgG2a Fc tag
T1 sequence: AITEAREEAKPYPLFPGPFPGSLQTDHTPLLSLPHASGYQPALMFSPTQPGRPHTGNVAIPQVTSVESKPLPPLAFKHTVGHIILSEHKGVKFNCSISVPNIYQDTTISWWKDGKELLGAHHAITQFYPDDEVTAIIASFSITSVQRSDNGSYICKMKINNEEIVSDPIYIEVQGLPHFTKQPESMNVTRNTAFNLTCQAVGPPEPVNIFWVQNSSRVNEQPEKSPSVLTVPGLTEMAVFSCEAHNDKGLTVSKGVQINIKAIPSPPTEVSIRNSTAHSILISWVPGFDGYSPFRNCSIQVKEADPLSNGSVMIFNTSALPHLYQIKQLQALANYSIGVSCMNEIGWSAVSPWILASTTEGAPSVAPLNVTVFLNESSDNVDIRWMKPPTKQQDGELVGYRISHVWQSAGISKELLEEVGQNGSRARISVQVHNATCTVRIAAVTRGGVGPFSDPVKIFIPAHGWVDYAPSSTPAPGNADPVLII
Description: SPR, Carterra LSA, antibody immobilised. The procedure: (§1) Binding kinetics of human anti-MerTK IgG1 LALAPS antibodies of the present disclosure to human, cyno, and murine MerTK were evaluated using a Carterra LSA instrument (Carterra, Salt Lake City, Utah). Briefly, anti-MerTK antibodies were prepared by diluting to 10 μg/ml in 10 mM Acetate, pH 4.25 (Carterra), at 300 μl/well. A HC200M sensor chip (Carterra) was activated using the single channel flow cell with a 7-minute injection of a 1:1:1 mixture of 100 mM MES pH 5.5, 100 mM sulfo-NHS, 400 mM EDC (all reconstituted in MES pH 5.5; 100 μl of each mixed in vial immediately before running assay). After switching to the multi-channel array flow cell, the antibodies were injected over the activated chip in a 96-spot array for 15 minutes. The remaining unconjugated active groups on the chip were then blocked by injecting 1M Ethanolamine pH 8.5 (Carterra) for 7 minutes using the single channel flow cell.
(§2) After priming with running buffer (HBS-TE, Carterra) with 0.5 mg/ml BSA (Sigma), the immobilized anti-MerTK antibodies were tested for their ability to bind to several forms of recombinant MerTK extracellular domain, including human, cynomolgus, and mouse orthologs as described above. Estimates of affinity were generated by injecting each analyte over the entire antibody array using the single channel flow cell. MerTK analytes were diluted to 33.3, 100, and 300 nM in running buffer, and injected in serial from lowest to highest concentration without regeneration. Two buffer blanks were run between each series (one species per series). Data were processed and analyzed using NextGenKIT high-throughput kinetics analysis software (Carterra).
(§3) The equilibrium dissociation constants (KD) were then calculated from the fitted association and dissociation rate constants (k-on and k-off) for anti-MerTK antibodies of the present disclosure. Binding kinetic analysis was also performed on anti-MerTK antibodies H1 (BioLegend, Clone ID: 590H11G1E3), H2 (R&D systems, Clone ID: 125518), M6 (WO2016/106221), and CDX AB2000-A7 hIgG1 (WO2019/084307).
For orientation: SPR reads the build-up and loss of mass on a sensor chip optically.
Turning to B1, the Kd amounted to 25 nM.

On to B2, for which the Kd was determined as 33 nM.

For B3, the Kd amounted to 3 nM.

In the case of B4, the equilibrium dissociation constant (Kd) stood at 5.3 nM.

For B5, the Kd was 6.7 nM.

Consider B6, for which the Kd was determined as 6.5 nM.

For B7, the Kd was 9.3 nM.

On to B8, for which the Kd was 40 nM.

With B9, the Kd was determined as 18 nM.

Consider B10, for which the Kd was found to be 54 nM.

Regarding B11, the Kd came to 43 nM.

For B12, the Kd was 2.4 nM.

A further test has as its target T2, cyno MerTK extracellular domain (ECD), recombinant (cynomolgus monkey, UniProt Q12866 21-505 (human entry)).
T2 construct: also called cynomolgus MerTK; not shown: polyHis tag or TEVS/Thrombin/murine IgG2a Fc tag
T2 chain: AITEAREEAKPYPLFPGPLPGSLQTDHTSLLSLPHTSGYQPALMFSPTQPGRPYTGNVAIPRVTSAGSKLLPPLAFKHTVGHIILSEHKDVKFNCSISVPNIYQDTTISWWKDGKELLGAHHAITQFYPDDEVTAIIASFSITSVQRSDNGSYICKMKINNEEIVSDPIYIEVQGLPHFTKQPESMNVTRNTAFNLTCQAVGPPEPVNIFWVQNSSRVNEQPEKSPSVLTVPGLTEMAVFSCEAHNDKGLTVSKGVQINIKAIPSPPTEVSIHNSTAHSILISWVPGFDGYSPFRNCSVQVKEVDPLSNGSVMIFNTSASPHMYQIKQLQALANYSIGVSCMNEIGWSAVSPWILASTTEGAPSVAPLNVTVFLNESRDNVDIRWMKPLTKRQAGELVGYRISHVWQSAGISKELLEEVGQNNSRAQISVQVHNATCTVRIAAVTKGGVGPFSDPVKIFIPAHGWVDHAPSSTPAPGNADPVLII
Description: SPR, Carterra LSA, antibody immobilised. How it is done: as §1, §2, §3
In the case of B1, the Kd turned out to be 24 nM.

Consider B13, for which the Kd was 99 nM.

On to B2, for which the Kd was determined as 44 nM.

For B3, the dissociation constant Kd stood at 2.9 nM.

On to B4, for which the binding result is listed as “no binding (tested: 300 nM)”.

In the case of B5, the binding result is on record as “no binding (tested: 300 nM)”.

With B6, the Kd is 6.6 nM.

Regarding B7, the Kd was 9.2 nM.

For B8, the Kd was found to be 43 nM.

For the molecule B9, the Kd turned out to be 18 nM.

As for B10, the Kd came to 55 nM.

Turning to B11, the Kd was found to be 53 nM.

With B12, the Kd is 12 nM.

The target in a further test is T3, murine MerTK extracellular domain (ECD), recombinant (mouse, UniProt Q60805 19-497).
T3 construct: also called moMerTK; mouse MerTK; not shown: polyHis tag or TEVS/Thrombin/murine IgG2a Fc tag
T3 sequence: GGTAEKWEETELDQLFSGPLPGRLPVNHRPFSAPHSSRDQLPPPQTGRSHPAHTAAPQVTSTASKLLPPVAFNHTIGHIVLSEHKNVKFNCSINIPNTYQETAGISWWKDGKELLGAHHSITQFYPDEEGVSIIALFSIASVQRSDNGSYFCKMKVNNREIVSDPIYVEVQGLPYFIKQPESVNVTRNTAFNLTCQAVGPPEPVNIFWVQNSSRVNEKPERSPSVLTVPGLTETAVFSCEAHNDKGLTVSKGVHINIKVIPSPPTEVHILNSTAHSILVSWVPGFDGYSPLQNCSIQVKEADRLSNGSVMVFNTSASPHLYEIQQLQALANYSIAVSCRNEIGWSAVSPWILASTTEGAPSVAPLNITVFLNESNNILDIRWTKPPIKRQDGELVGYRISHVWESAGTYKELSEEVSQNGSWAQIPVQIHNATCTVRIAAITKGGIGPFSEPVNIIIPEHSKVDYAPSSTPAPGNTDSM
Description: SPR, Carterra LSA, antibody immobilised. How it is done: as §1, §2, §3
On to B1, for which the binding result is “no binding (tested: 300 nM)”.

With B13, the binding result is listed as “no binding (tested: 300 nM)”.

Turning to B2, the binding result is listed as “no binding (tested: 300 nM)”.

For the molecule B3, the binding result is given as “no binding (tested: 300 nM)”.

Take B4: the binding result is recorded as “no binding (tested: 300 nM)”.

As to B5, the binding result was “no binding (tested: 300 nM)”.

For the molecule B6, the Kd was 75 nM.

Take B7: the binding result is listed as “no binding (tested: 300 nM)”.

On to B8, for which the binding result was “no binding (tested: 300 nM)”.

Take B9: the binding result is given as “no binding (tested: 300 nM)”.

In the case of B10, the binding result was “no binding (tested: 300 nM)”.

As to B11, the binding result was “no binding (tested: 300 nM)”.

As for B12, the Kd turned out to be 130 nM.
